Tests used:
[1] = molecular target: FlgY_(15–172), FlgY without the predicted signal peptide (C. jejuni 81-176); assay: SEC; Superdex 200 Increase 10/300 GL; 20 mM Tris-HCl pH 8.0, 300 mM NaCl
[2] = molecular target: FlgY_(90–172) (C. jejuni 81-176); assay: as above
PflB_(113–820) = molecular target: T1, PflB_(113–820) (C. jejuni 81-176, UniProt A0A6F9L7Y3 113-820); assay: cryo-EM structure; single-particle cryo-EM of the purified PflA16-788 and PflB113-820 complex at 0.4 mg/ml; 3.23 Å; settings: both partners purified
T1 construct: PflB of C. jejuni 81-176, residues 113-820; 178-820 resolved in the cryo-EM structure; also called PflB_(178–820) (the part built in the model)
T1 sequence: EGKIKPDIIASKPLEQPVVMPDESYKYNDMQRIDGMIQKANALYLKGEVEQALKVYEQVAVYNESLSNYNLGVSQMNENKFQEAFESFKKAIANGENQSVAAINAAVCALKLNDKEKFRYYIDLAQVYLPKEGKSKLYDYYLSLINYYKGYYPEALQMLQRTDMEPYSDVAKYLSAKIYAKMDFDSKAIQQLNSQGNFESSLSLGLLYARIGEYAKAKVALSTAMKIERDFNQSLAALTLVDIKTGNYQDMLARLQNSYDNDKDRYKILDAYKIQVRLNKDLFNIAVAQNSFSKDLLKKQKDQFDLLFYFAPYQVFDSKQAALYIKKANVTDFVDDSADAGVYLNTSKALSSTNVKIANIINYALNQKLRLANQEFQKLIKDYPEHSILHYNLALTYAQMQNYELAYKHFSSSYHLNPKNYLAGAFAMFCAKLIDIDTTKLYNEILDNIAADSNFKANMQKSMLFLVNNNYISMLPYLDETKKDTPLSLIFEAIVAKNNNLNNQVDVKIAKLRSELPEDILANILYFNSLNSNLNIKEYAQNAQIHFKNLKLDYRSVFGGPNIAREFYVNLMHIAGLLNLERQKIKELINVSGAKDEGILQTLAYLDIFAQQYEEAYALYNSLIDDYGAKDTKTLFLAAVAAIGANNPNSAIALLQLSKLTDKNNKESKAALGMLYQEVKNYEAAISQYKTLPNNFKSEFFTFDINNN

PflA_(16–788)-Strep = molecular target: T2, PflA_(16–788)-Strep (C. jejuni 81-176, UniProt Q46092 16-788); assay: MST
T2 chain: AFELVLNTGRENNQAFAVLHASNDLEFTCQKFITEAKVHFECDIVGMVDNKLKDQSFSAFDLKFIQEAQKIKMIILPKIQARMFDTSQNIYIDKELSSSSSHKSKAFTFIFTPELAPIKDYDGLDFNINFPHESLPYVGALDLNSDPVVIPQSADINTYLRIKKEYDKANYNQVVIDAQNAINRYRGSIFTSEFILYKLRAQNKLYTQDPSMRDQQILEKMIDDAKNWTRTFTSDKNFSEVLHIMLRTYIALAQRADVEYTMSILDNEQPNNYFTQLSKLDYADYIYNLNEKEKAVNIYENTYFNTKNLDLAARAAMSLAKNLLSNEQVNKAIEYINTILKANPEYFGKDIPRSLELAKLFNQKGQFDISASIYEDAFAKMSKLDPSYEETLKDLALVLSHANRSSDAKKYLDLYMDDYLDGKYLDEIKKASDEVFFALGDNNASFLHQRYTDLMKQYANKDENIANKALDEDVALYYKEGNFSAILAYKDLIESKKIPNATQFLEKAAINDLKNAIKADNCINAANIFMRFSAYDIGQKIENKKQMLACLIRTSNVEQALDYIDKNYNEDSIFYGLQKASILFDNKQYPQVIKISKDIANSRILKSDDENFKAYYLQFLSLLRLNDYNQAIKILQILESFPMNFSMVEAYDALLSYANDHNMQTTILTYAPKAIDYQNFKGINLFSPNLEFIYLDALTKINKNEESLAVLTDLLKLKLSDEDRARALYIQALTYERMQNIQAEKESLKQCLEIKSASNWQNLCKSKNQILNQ

## FlgY_(15–172), FlgY without the predicted signal peptide (domain or fragment)
[1]
  stoichiometry N: 2

## FlgY_(90–172) (domain or fragment)
[2]
  stoichiometry N: 2

B1: PflA_(16–788) of the purified PflA_(16–788) and PflB_(113–820) complex (domain or fragment)
chain: AFELVLNTGRENNQAFAVLHASNDLEFTCQKFITEAKVHFECDIVGMVDNKLKDQSFSAFDLKFIQEAQKIKMIILPKIQARMFDTSQNIYIDKELSSSSSHKSKAFTFIFTPELAPIKDYDGLDFNINFPHESLPYVGALDLNSDPVVIPQSADINTYLRIKKEYDKANYNQVVIDAQNAINRYRGSIFTSEFILYKLRAQNKLYTQDPSMRDQQILEKMIDDAKNWTRTFTSDKNFSEVLHIMLRTYIALAQRADVEYTMSILDNEQPNNYFTQLSKLDYADYIYNLNEKEKAVNIYENTYFNTKNLDLAARAAMSLAKNLLSNEQVNKAIEYINTILKANPEYFGKDIPRSLELAKLFNQKGQFDISASIYEDAFAKMSKLDPSYEETLKDLALVLSHANRSSDAKKYLDLYMDDYLDGKYLDEIKKASDEVFFALGDNNASFLHQRYTDLMKQYANKDENIANKALDEDVALYYKEGNFSAILAYKDLIESKKIPNATQFLEKAAINDLKNAIKADNCINAANIFMRFSAYDIGQKIENKKQMLACLIRTSNVEQALDYIDKNYNEDSIFYGLQKASILFDNKQYPQVIKISKDIANSRILKSDDENFKAYYLQFLSLLRLNDYNQAIKILQILESFPMNFSMVEAYDALLSYANDHNMQTTILTYAPKAIDYQNFKGINLFSPNLEFIYLDALTKINKNEESLAVLTDLLKLKLSDEDRARALYIQALTYERMQNIQAEKESLKQCLEIKSASNWQNLCKSKNQILNQ
notes: PflA of C. jejuni 81-176, residues 16-788; only 16-163 (β-sandwich domain and flexible loop) are resolved in the cryo-EM structure; PflA16-788 was cloned both in pET22b (C-terminal 6×His) and in pET26b (C-terminal Strep-tag); also called PflA_(16–163) (the part resolved in the map)
PflB_(113–820)
  stoichiometry N: 1

B2: FlgY_(15–172), FlgY without the predicted signal peptide (domain or fragment)
chain: VFGAEQDCEQYFEARKAQIELQTREFDEARQSLEAYKASFEALQKERLENLEKKEAEVNATLAKIEELKLENARLVEEQQKILNSINDKTQGRVKEIYSQMKDAAIADVLSQMDAEDASKIMLSLESRKISGVLSKMDPKKASELTLLLKNLDNNASN
PflA_(16–788)-Strep
  Kd: 3.5 µM

— paper doi:10.1101/2025.02.19.638559, “The architecture, assembly, and evolution of a complex flagellar motor” (bioRxiv, 2025)
